The text below walks through data of PMC10892425.

In data set [1] the test system is VV-GMCSF-Lact intact vaccinia virus particles (surface protein target not identified) (Vaccinia virus, LIVP strain (recombinant VV-GMCSF-Lact)). In words: MST.
Data set [2] has the same test system. As to the kind of experiment: flow cytometry. For orientation: In flow cytometry, cells or beads pass a laser one at a time.

On to “GTAACCAGCCATCACCCTATTATCTCATTATCTCGTTTTCCCTATGCGGCATAGG [NV14t_56 (8NV37_14 variant 2_12-67)]”, for which, in data set [1], the K half is 1.49e+09 PFU/mL. Besides, the Kd (in general, a measure of binding affinity in units of concentration) in data set [2] was determined as 353 nM.
